# Substitutions are numbered along the chain they refer to. In names and notes the source's numbering stands. Several values for one entry are separate records, joined by “and”; a condition that tells them apart may be missing. Equal values may be shown once.
# B1: K354E: modified GLD: SEQ ID NO: 1 with substitution K354E (protein, listed as Aspergillus terreus)
# chain: MLGKLSFLSALSLAVAAPLSNSTSAKYDYIVIGGGTSGLAVANRLSEDPNVNVLILEAGGSVWNNPNVTNVDGYGLAFGSDIDWQYQSVNQPYGGNLSQVLRAGKALGGTSTINGMAYTRAEDVQIDAWETIGNTGWTWKNLFPYYRKSENFTVPTKSQTSLGASYEAGAHGHEGPLDVAFTQIESNNLTTYLNRTFQGMGLPWTEDVNGGKMRGFNLYPSTVNLEEYVREDAARAYYWPYKSRPNLHVLLNTFANRIVWDGEAHDGHITASGVEITSRNGTVRVINAEKEVIVSAGALKSPAILELSGIGNPSVLDKHNIPVKVNLPTVGENLQDQVNSHMDASGNTSISGTEAVSYPDVYDVFGDEAESVAKQIRANLKQYAADTAKANGNIMKAADLERLFEVQYDLIFKGRVPIAEVLNYPGSATSVFAEFWALLPFARGSVHIGSSNPAEFPVINPNYFMLDWDAKSYVAVAKYIRRSFESYPLSSIVKESTPGYDVIPRNASEQSWKEWVFDKNYRSNFHPVGTAAMMPREIGGVVDERLNVYGTTNVRVVDASVLPFQVCGHLVSTLYAVAERAADLIKADAGRR
# modifications: SIGNAL (1)..(19)
# B2: Y424K: modified GLD: SEQ ID NO: 1 with substitution Y424K (protein, listed as Aspergillus terreus)
# chain: B1 chain with E354K, Y424K
# modifications: SIGNAL (1)..(19)
# B3: K354M: modified GLD: SEQ ID NO: 1 with substitution K354M (protein, listed as Aspergillus terreus)
# chain: B1 chain with E354M
# modifications: SIGNAL (1)..(19)
# B4: Y424R: modified GLD: SEQ ID NO: 1 with substitution Y424R (protein, listed as Aspergillus terreus)
# chain: B1 chain with E354K, Y424R
# modifications: SIGNAL (1)..(19)
# B5: G352D: modified GLD: SEQ ID NO: 1 with substitution G352D (protein, listed as Aspergillus terreus)
# chain: B1 chain with G352D, E354K
# modifications: SIGNAL (1)..(19)
# B6: G426F: modified GLD: SEQ ID NO: 1 with substitution G426F (protein, listed as Aspergillus terreus)
# chain: B1 chain with E354K, G426F
# modifications: SIGNAL (1)..(19)
# B7: K354Q: modified GLD: SEQ ID NO: 1 with substitution K354Q (protein, listed as Aspergillus terreus)
# chain: B1 chain with E354Q
# modifications: SIGNAL (1)..(19)
# B8: Y424S: modified GLD: SEQ ID NO: 1 with substitution Y424S (protein, listed as Aspergillus terreus)
# chain: B1 chain with E354K, Y424S
# modifications: SIGNAL (1)..(19)
# B9: Y424C: modified GLD: SEQ ID NO: 1 with substitution Y424C (protein, listed as Aspergillus terreus)
# chain: B1 chain with E354K, Y424C
# modifications: SIGNAL (1)..(19)
# B10: K354F: modified GLD: SEQ ID NO: 1 with substitution K354F (protein, listed as Aspergillus terreus)
# chain: B1 chain with E354F
# modifications: SIGNAL (1)..(19)
# B11: K354H: modified GLD: SEQ ID NO: 1 with substitution K354H (protein, listed as Aspergillus terreus)
# chain: B1 chain with E354H
# modifications: SIGNAL (1)..(19)
# B12: K354S: modified GLD: SEQ ID NO: 1 with substitution K354S (protein, listed as Aspergillus terreus)
# chain: B1 chain with E354S
# modifications: SIGNAL (1)..(19)
# B13: Y424Q: modified GLD: SEQ ID NO: 1 with substitution Y424Q (protein, listed as Aspergillus terreus)
# chain: B1 chain with E354K, Y424Q
# modifications: SIGNAL (1)..(19)
# B14: K354G: modified GLD: SEQ ID NO: 1 with substitution K354G (protein, listed as Aspergillus terreus)
# chain: B1 chain with E354G
# modifications: SIGNAL (1)..(19)
# B15: K354R: modified GLD: SEQ ID NO: 1 with substitution K354R (protein, listed as Aspergillus terreus)
# chain: B1 chain with E354R
# modifications: SIGNAL (1)..(19)
# B16: G352C: modified GLD: SEQ ID NO: 1 with substitution G352C (protein, listed as Aspergillus terreus)
# chain: B1 chain with G352C, E354K
# modifications: SIGNAL (1)..(19)
# B17: K354Y: modified GLD: SEQ ID NO: 1 with substitution K354Y (protein, listed as Aspergillus terreus)
# chain: B1 chain with E354Y
# modifications: SIGNAL (1)..(19)
# B18: Y424V: modified GLD: SEQ ID NO: 1 with substitution Y424V (protein, listed as Aspergillus terreus)
# chain: B1 chain with E354K, Y424V
# modifications: SIGNAL (1)..(19)
# B19: G352A: modified GLD: SEQ ID NO: 1 with substitution G352A (protein, listed as Aspergillus terreus)
# chain: B1 chain with G352A, E354K
# modifications: SIGNAL (1)..(19)
# B20: G426E: modified GLD: SEQ ID NO: 1 with substitution G426E (protein, listed as Aspergillus terreus)
# chain: B1 chain with E354K, G426E
# modifications: SIGNAL (1)..(19)
# B21: Y424N: modified GLD: SEQ ID NO: 1 with substitution Y424N (protein, listed as Aspergillus terreus)
# chain: B1 chain with E354K, Y424N
# modifications: SIGNAL (1)..(19)
# B22: K354P: modified GLD: SEQ ID NO: 1 with substitution K354P (protein, listed as Aspergillus terreus)
# chain: B1 chain with E354P
# modifications: SIGNAL (1)..(19)
# B23: Y424D: modified GLD: SEQ ID NO: 1 with substitution Y424D (protein, listed as Aspergillus terreus)
# chain: B1 chain with E354K, Y424D
# modifications: SIGNAL (1)..(19)
# B24: Y424T: modified GLD: SEQ ID NO: 1 with substitution Y424T (protein, listed as Aspergillus terreus)
# chain: B1 chain with E354K, Y424T
# modifications: SIGNAL (1)..(19)
# B25: Y424E: modified GLD: SEQ ID NO: 1 with substitution Y424E (protein, listed as Aspergillus terreus)
# chain: B1 chain with E354K, Y424E
# modifications: SIGNAL (1)..(19)
# B26: K354N: modified GLD: SEQ ID NO: 1 with substitution K354N (protein, listed as Aspergillus terreus)
# chain: B1 chain with E354N
# modifications: SIGNAL (1)..(19)
# Test: Relative enzymatic activity of GLD (DCIP/1-m-PMS, plate reader, yeast culture supernatant) with proflavin hydrochloride present
# Format: biochemical
# Conditions: site-specific mutants, inhibitor final concentration 1 mM
# Outline: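 Culture supernatant diluted and mixed with reagent of phosphate buffer pH 7.0, 1.0 M D-glucose, 3 mM DCIP, 3 mM 1-m-PMS and methanol (0.1:1:0.14:0.2:0.06). DCIP absorbance decrease at 600 nm followed; proflavin hydrochloride in methanol replaced methanol at 1 mM final. Activity expressed as % of inhibitor-free blank.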
row,Molecule,Relative Activity [%] Proflavin hydrochloride
1,B1,20.7%
2,B2,52.5%
3,B3,10.7%
4,B4,55.6%
5,B5,42.7%
6,B6,51.8%
7,B7,12.5%
8,B8,61.0%
9,B9,45.9%
10,B10,16.0%
11,B11,11.1% and 11.6%
12,B12,21.3%
13,B13,50.2%
14,B14,23.0%
15,B15,12.6%
16,B16,43.8%
17,B17,15.1%
18,B18,46.7%
19,B19,47.9%
20,B20,32.6%
21,B21,55.6%
22,B22,16.7%
23,B23,37.2%
24,B24,43.4%
25,B25,37.1%
26,B26,15.1%

# Test: Relative enzymatic activity of GLD (DCIP/1-m-PMS, plate reader, yeast culture supernatant) with 1,10-phenanthroline present
# Format: biochemical
# Conditions: site-specific mutants, inhibitor final concentration 1 mM
# Outline: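 Inhibitor at 1 mM final substitutes for the methanol in the reagent, and the sample rate is expressed as % of the inhibitor-free blank. Rates come from ΔA600/min of DCIP with glucose and 1-m-PMS at pH 7.0, using supernatants of YPD-grown yeast clones (24 h, 30° C.).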
row,Molecule,"Relative Activity [%] 1,10-Phenanthroline"
1,B1,60.0%
2,B2,71.9%
3,B3,53.5%
4,B4,70.3%
5,B5,87.8%
6,B6,60.5%
7,B7,71.4%
8,B8,81.4%
9,B9,73.7%
10,B10,47.8%
11,B11,52.6% and 51.0%
12,B12,71.6%
13,B13,80.2%
14,B14,60.8%
15,B15,64.4%
16,B16,86.2%
17,B17,56.0%
18,B18,49.1%
19,B19,76.1%
20,B20,64.4%
21,B21,89.9%
22,B22,64.3%
23,B23,87.1%
24,B24,71.2%
25,B25,87.5%
26,B26,61.9%

# Reference: patent US8969060B2, “Modified glucose dehydrogenase” (Ikeda Food Research Co., Ltd., priority 2011, dated 2015)
